Assay [1] deals with Chlamydomonas reinhardtii Rubisco (CrRubisco) (Chlamydomonas reinhardtii (endogenous in Chlamydomonas cells)) (UniProt P00877). Nature of the assay: SPR; Rubisco immobilised as bait, fragments as analyte (prey); Biacore T100/T200, 25 °C; analyte injected at 15 μl/min for 30 s, 360 s dissociation; fit of y = Bmax·x/(KD + x); apparent KD; triplicate.
Assay [2] has as its target Chlorella sorokiniana Rubisco holoenzyme (CsRubisco) (Chlorella sorokiniana UTEX1230 (endogenous in Chlorella cells)) (UniProt W8SUA8). The assay is described as above.
For assay [3] the target is unchanged. Nature of the assay: native gel or EMSA; native PAGE gel-shift assay; Rubisco and fragments mixed for 30 min at room temperature; 50 mM Tris-HCl pH 8.0, 50 mM NaCl (Fig. 3a); 4-20% gels, 4 h at 100 V, 4 °C. A general note: Mobility shift assays separate free from complexed probe on a gel.
For assay [4] the target is unchanged. Nature of the assay: cryo-EM structure; 0.5 μM CsRubisco and 16 μM α3–α4 in 200 mM sorbitol, 50 mM HEPES, 50 mM KOAc, 2 mM Mg(OAc)2, 1 mM CaCl2, pH 6.8; D4 map of the holoenzyme and C1 map after symmetry expansion.

Sequence of Chlamydomonas reinhardtii Rubisco (CrRubisco) (Chlamydomonas reinhardtii (endogenous in Chlamydomonas cells)) (P08475 46-185 limits assumed, chain 2 of 2, other chains not shown): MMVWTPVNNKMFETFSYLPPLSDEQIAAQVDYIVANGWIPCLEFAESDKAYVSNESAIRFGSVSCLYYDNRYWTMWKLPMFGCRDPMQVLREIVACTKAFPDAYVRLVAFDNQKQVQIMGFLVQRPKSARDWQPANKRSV

Take “CsLinker α3 fragment (residues 142–207) (domain or fragment)”: the Kd in assay [1] worked out at 108 µM; in assay [2], 103 µM.

Regarding “CsLinker α3–α4 fragment (residues 142–272) (domain or fragment)”, the K0.5 (half-occupancy) in assay [3] was determined as 1.2 µM. In addition, the percent of the CsRbcL sites occupied in assay [4] was 23%. Further, the Kd in assay [1] was 1.3 µM; in assay [2] it was 1.21 µM.

Values taken from PMC11570498.
